Assay results taken from patent US10711246B2, “Methods and compositions for generating epicardium cells” (UNIVERSITY HEALTH NETWORK, priority 2013, dated 2020).
“Also recorded” adds a separate entry of the source.

Experiments:
[1] = system: hESC-derived mesoderm; assay: Cardiomyocyte specification from hESC-derived day 4 mesoderm, cTnT+ cells at day 15 by flow cytometry; assay type: cell-based, human; conditions: for cardiomyocyte development in presence of Wnt and activin/nodal/TGFβ inhibitor: specification step, contracting cTnT/SIRPA cells at day 15; for cardiomyocyte development / specification: added to day 4 mesoderm during specification step, high levels of BMP4 or inhibitors, analysed day 15
Experimental: FIG. 1. Cardiomyocyte specification from hESCs. Scheme of the protocol used to differentiate hESCs towards the cardiomyocyte lineage highlighting the three main stages of development: 1) mesoderm induction, 2) cardiovascular specification and 3) maturation. Cells from ActivinA/BMP4-induced day 4 embryoid bodies (EBs) are plated as a monolayer on gelatin coated wells. […] Following specification, the cultures were maintained in VEGF for 9 days and then analyzed for the presence of cTnT+ cardiomyocytes by flow cytometry. FIG. 2. […] (a) Flow cytometric analyses showing the presence of the KDR+ and PDGFRα+ populations at day 4 and day 5 and the cTnT+ expression on day 15 of culture following no treatment (control), treatment with BMP4 (10 ng/ml) or the BMP4 inhibitor Noggin (400 ng/ml). (b) Total cell numbers per well at day 15 in the cultures treated as above. Error bars represent standard deviation from the mean from three experiments. FIG. 3. […] Graphical representation of flow cytometry analyses indicating the percent cTnT^+ cells in day 15 cultures generated from populations treated with the indicated amounts of BMP4 or Noggin. NT=no treatment. Bars represent standard deviation from the mean of the values from three independent experiments (N=3); *P≤0.05, **P≤0.01 when compared to no treatment. FIG. 9. […] Error bars represent standard deviation from the mean of the values from three independent experiments (N=3); *P≤0.05, **P≤0.01 when compared to the ‘no Wnt treatment’ (NT) control in context of the indicated manipulation of the BMP pathway. (b) qRT-PCR-based analyses of WT1 expression on day 15 cultures generated from untreated cells (control) or cells treated with either BMP4 (10 ng/ml) or DM (4 μM) in combination with the indicated amounts of DKK or CHIR. Values are relative to the housekeeping gene TBP. Error bars represent standard deviation from the mean of the values from three independent experiments (N=3); *P≤0.05, **P≤0.01 when compared to the ‘no Wnt treatment’ (NT) control in the context of the indicated manipulation of the BMP pathway. (c) Flow cytometry analyses showing percent cTnT+ cells and qRT-PCR analyses for WT1 expression in day 15 cultures generated from untreated cells (control) or cells treated with either BMP4 (10 ng/ml) or DM (4 μM) in combination with the indicated amounts of XAV939 (XAV). Error bars represent standard deviation from the mean of the values from three independent experiments (N=3); *P≤0.05, **P≤0.01 when compared to no Wnt treatment (see FIGS. 9a and 9b) in the context of the specific BMP treatment. (d) Flow cytometry analyses showing percent cTnT+ cells and qRT-PCR analyses of WT1 expression in day 15 cultures generated from untreated cells (control) or cells treated with either BMP4 (10 ng/ml) or DM (4 μM) in combination with the indicated amounts of IWP2. Error bars represent standard deviation from the mean of the values from three independent experiments (N=3); *P≤0.05, **P≤0.01 when compared to no Wnt treatment (see FIGS. 9a and 9b) in the context of the specific BMP treatment. Media consisting of StemPro-34 (Life Technologies) supplemented with […] penicillin/streptomycin, 2 mM L-glutamine, 1 mM ascorbic acid, and 4 3 10_4 M monothioglycerol (MTG) (Sigma). […] The Activin/Nodal/TGF-b and BMP inhibition experiments were carried out with SB-431542 (Tocris, Ellisville, Mo.) and dorsomorphin (Sigma), respectively. For experiments involving Wnt signaling, CHIR-99021 (Stemgent), XAV-939 (R&D), or IWP2(R&D) were used at the indicated concentrations. Cultures were maintained in a 5% CO2, 5% O2, 90% N2 environment for the first 10-12 days and were then transferred into a 5% CO2 air environment for the remainder of the culture period.

[2] = system: hESC-derived mesoderm; assay: qRT-PCR and immunostaining of myocardial and epicardial markers (WT1, TBX18) after treatment of mesoderm; assay type: cell-based, human; conditions: for WT1 expression in BMP4-treated cells: higher concentrations of DKK1 or small molecule antagonists, CHIR
Excerpt: Values are relative to the housekeeping gene TBP. Error bars represent standard deviation from the mean of the values from three independent experiments (N=3); *P≤0.05, **P≤0.01 when compared to no treatment. FIG. 5. […] Error bars represent standard deviation from the mean of the values from three independent experiments (N=3); *P≤0.05, **P≤0.01 when compared to the ‘no Wnt treatment’ (NT) control in context of the indicated manipulation of the BMP pathway. (b) qRT-PCR-based analyses of WT1 expression on day 15 cultures generated from untreated cells (control) or cells treated with either BMP4 (10 ng/ml) or DM (4 μM) in combination with the indicated amounts of DKK or CHIR. Values are relative to the housekeeping gene TBP. Error bars represent standard deviation from the mean of the values from three independent experiments (N=3); *P≤0.05, **P≤0.01 when compared to the ‘no Wnt treatment’ (NT) control in the context of the indicated manipulation of the BMP pathway. (c) Flow cytometry analyses showing percent cTnT+ cells and qRT-PCR analyses for WT1 expression in day 15 cultures generated from untreated cells (control) or cells treated with either BMP4 (10 ng/ml) or DM (4 μM) in combination with the indicated amounts of XAV939 (XAV). Error bars represent standard deviation from the mean of the values from three independent experiments (N=3); *P≤0.05, **P≤0.01 when compared to no Wnt treatment (see FIGS. 9a and 9b) in the context of the specific BMP treatment. (d) Flow cytometry analyses showing percent cTnT+ cells and qRT-PCR analyses of WT1 expression in day 15 cultures generated from untreated cells (control) or cells treated with either BMP4 (10 ng/ml) or DM (4 μM) in combination with the indicated amounts of IWP2. Error bars represent standard deviation from the mean of the values from three independent experiments (N=3); *P≤0.05, **P≤0.01 when compared to no Wnt treatment (see FIGS. 9a and 9b) in the context of the specific BMP treatment. […] As a first approach to identify these cells, we analyzed them for expression of a panel of myocardial and epicardial genes over a 6-15 day time course. […] In vivo, the epicardial cells form an epithelial layer that surrounds the developing heart^18. In addition to their distinct morphology, epithelial cells in culture are characterized by their ability to form tight junctions that can be monitored by the presence of the zona occludins 1 (ZO1) protein.

[3] = titration during specification step, FIG. 3
[4] = qRT-PCR, 6-15 day time course, cells from treated mesoderm

Cc1c[nH]c(-c2cnc(NCCNc3ccc(C#N)cn3)nc2-c2ccc(Cl)cc2Cl)n1 [CHIR99021, reference compound]
cardiomyocyte development in DM-treated cultures ([1]; Wnt activation in presence of dorsomorphin): unaffected
cardiomyocyte development in the endogenous BMP control ([1]; Wnt activation, no BMP pathway regulators): inhibited cardiomyocyte development
WT1 expression in DM treated cultures ([2]; qRT-PCR day 15): no change in WT1 expression
WT1 expression in the endogenous BMP population ([2]; qRT-PCR day 15): increased levels
WT1 expression in BMP4-treated cells ([2]; qRT-PCR day 15): did not impact WT1 expression

Cc1ccc2nc(NC(=O)CSc3nc4c(c(=O)n3-c3ccccc3)SCC4)sc2c1 [IWP2, reference compound]
WT1 expression in BMP4-treated cells ([2]; qRT-PCR day 15): decreased WT1 expression

NC(=O)c1ccc(-c2nc(-c3ccc4c(c3)OCO4)c(-c3ccccn3)[nH]2)cc1 [SB431542, reference compound]
cardiomyocyte development in presence of Wnt and activin/nodal/TGFβ inhibitor [1]: cardiomyocytes routinely develop

Oc1nc(-c2ccc(C(F)(F)F)cc2)nc2c1CSCC2 [XAV939, reference compound]
WT1 expression in BMP4-treated cells ([2]; qRT-PCR day 15): decreased WT1 expression

B1: DKK1 (protein, UniProt O94907 32-266, looked up)
Dickkopf-related protein 1: TLNSVLNSNAIKNLPPPLGGAAGHPGSAVSAAPGILYPGGNKYQTIDNYQPYPCAEDEECGTDEYCASPTRGGDAGVQICLACRKRRKRCMRHAMCCPGNYCKNGICVSSDQNHFRGEIEETITESFGNDHSTLDGYSRRTTLSSKMYHTKGQEGSVCLRSSDCASGLCCARHFWSKICKPVLKEGQVCTKHRRKGSHGLEIFQRCYCGEGLSCRIQKDHHQASNSSRLHTCQRH
cardiomyocyte development in presence of Wnt and activin/nodal/TGFβ inhibitor [1]: cardiomyocytes routinely develop

B2: noggin (protein, UniProt Q13253 28-232, looked up)
Noggin: QHYLHIRPAPSDNLPLVDLIEHPDPIFDPKEKDLNETLLRSLLGGHYDPGFMATSPPEDRPGGGGGAAGGAEDLAELDQLLRQRPSGAMPSEIKGLEFSEGLAQGKKQRLSKKLRRKLQMWLWSQTFCPVLYAWNDLGSRFWPRYVKVGSCFSKRSCSVPEGMVCKPSKSVHLTVLRWRCQRRGGQRCGWIPIQYPIISECKCSC
cardiomyocyte development / specification [1]: completely blocked cardiomyocyte development; also recorded: inhibited cardiomyocyte specification
levels of KDR (mesoderm development) ([1]; flow cytometry after treatment of day 4 mesoderm): decrease the levels of KDR to some extent
low levels at which cardiomyocyte development is achieved [1, 3]: 12.5 to 200 ng/mL
expression of panel of myocardial and epicardial genes ([2]; qRT-PCR, 6-15 day time course): did not express significant levels of any of these genes

B3: Bone Morphogenetic Protein 4 (protein, UniProt P12644 293-408, looked up)
Bone morphogenetic protein 4: SPKHHSQRARKKNKNCRRHSLYVDFSDVGWNDWIVAPPGYQAFYCHGDCPFPLADHLNSTNHAIVQTLVNSVNSSIPKACCVPTELSAISMLYLDEYDKVVLKNYQEMVVEGCGCR
notes: Bone Morphogenetic Protein 4, human BMP4 (R&D Systems)
cardiomyocyte development / specification [1]: completely blocked cardiomyocyte development
concentrations that inhibited cardiomyocyte specification [1, 3]: ≥ 0.63 ng/mL
low levels at which cardiomyocyte development is achieved [1, 3]: 0.31 ng/mL
WT1 (nuclear) by immunostaining ([2]; day 15 of culture): detected only in cells induced with BMP4
TBX18 expression [2, 4]: predominantly
WT1 expression [2, 4]: exclusively
BNC1 and ANXA8 expression ([2]; qRT-PCR, cells from treated mesoderm): highly expressed
